{"source": "patent US5980890A", "about": "“Purification and characterization of alkaline phosphates from Thermotoga neapolitana” (Michigan State University, priority 1997, dated 1999)", "molecules": {"B1": {"name": "Thermotoga neapolitana (DSM 5068) alkaline phosphatase, purified native enzyme (Thermotoga neapolitana DSM 4359) (protein)", "chain": "QVKNIIYFIGDGMGLSQAYLTSLIEGRPLSFMKTPYTGLVKTHSVDSWVTDSAAAGTALASGFKTKNGMINVLPDGTRVPTIFEIAKAYGAKTGIVVTCRVTHATPAAFYAHVKSRSEENEIARQLVESETVDLVMGGGWANFLPESLGGKRSDGLNLIEMAKKKGYVYVTKKEDLMKLPENTEKVLALFAPSHLDPASSREEQPMLYEMVKKALEILSNDEEPFFLMVEGSQIDWEAHDNDIYGVWKEVVEFDRAVQVALDFALKRGDTLVIVTADHETGGLALSSGDYRVDVDRIRKFSKTTDWILANYSLKDRESFKKAIEKYFGLTLSDSDLDRITSSNNSKVELGRVLSEKVNVGWTTTSHSGVPVPIYAFGPGAENFTGFLDNTDIPRIMMKLAGYSLQYPLVKEPVK"}}, "key": {"[1]": {"biological_target": "T1, Thermotoga neapolitana (DSM 5068) alkaline phosphatase, purified native enzyme (Thermotoga neapolitana, UniProt B9K6X5)", "T1 sequence (B9K6X5 23-436)": "B1 chain", "assay": "biochemical", "details": "1 h, read-out: original activity detected after exhaustive treatment with EDTA", "protocol": "The initial linear change in the absorbance at 410 nm was detected by recording spectrophotometer (Cary 219, U.S.A.), thermostated at 60° C. One enzyme activity unit represents the hydrolysis of 1 μl mole of substrate per min under these standard assay condition.\nThe purified alkaline phosphatase in Buffer A was incubated at room temperature for 1 h in the presence of EDTA at 0.0-5.0 mM concentration respectively. The residual enzyme activity was assayed under standard conditions.\nFor metal ion treatment, 10 mM EDTA was added into a tube containing the purified alkaline phosphatase in Buffer A. After 1 h, the mixture was dialyzed against Buffer A containing 2 mM EDTA and then three times against Buffer A without EDTA. Subsequently, 2 mM of different metal ions were added to the deionized enzyme solutions, and the mixtures were incubated for 1 h at room temperature. For a comparison, 2 mM of various metal ions were added directly to purified protein and incubated under the same conditions. All the metal ions used were in chloride form. The enzyme activity was assayed under standard conditions."}, "[2]": {"substrate": "O=[N+]([O-])c1ccc(OP(=O)(O)O)cc1", "assay": "purified protein, by the assay type", "details": "other: p-nitrophenyl phosphate as substrate, optimal temperature and pH conditions (85° C., pH 9.9)"}}, "note": "Where a name gives a salt, the structure may show the parent alone."}
{"molecule": "O=C(O)CN(CCN(CC(=O)O)CC(=O)O)CC(=O)O", "note": "[EDTA, Ethylenediamine tetraacetic acid disodium salt]", "values": [{"measurement": "activity at 10000 µM", "setting": "[1]", "result": "~5", "unit": "%"}]}
{"molecule": "B1", "values": [{"measurement": "Km", "setting": "[2]", "result": 183, "unit": "µM"}, {"measurement": "Vmax", "setting": "[2]", "result": 1352, "unit": "U/mg"}]}
